Experiment: soluble on expression in E. coli; label from the status in PepcDB or PDB records

Q: For “EGPIDKLKTPEDVPNDPLPLISDFEWSTLDIDDNLQLDELYKLLYDNYVEDIDATFRFKYSHEFFQWALKPPGWRKDWHVGVRVKSTGKLVAFIAATPVTFKLNKSNKVIDSVEINFLCIHKKLRNKRLAPVLIKEITRRVNKQNIWQALYTGGSILPTPLTTCRYQHRPINWSKLHDVGFSHLPPNQTKSSMVASYTLPNNPKLKGLRPMTGKDVSTVLSLLYKYQERFDIVQLFTEEEFKHWMLGHDENSDSNVVKSYVVEDENGIITDYFSYYLLPFTVLDNAQHDELGIAYLFYYASDSFEKPNYKKRLNELITDALITSKKFGVDVFNCLTCQDNTYFLKDCKFGSGDGFLNYYLFNYRTFPMDGGIDKKTKEVVEDQTSGIGVVLL”, which “soluble on expression in E. coli” value is on record?
A: Its value is “soluble”.

Q: For “MPTKGRVFVLGHSQDKDCVSRETGRRTTSITVPRDKCGVETVQHGKGAGYTSSVNIVISFHDKFLTKVDRAYNITCLYAPTGDVVSYALTVQPSLLKDIQVLAEQPSCEYEVFDVRTRRPAEIVHVNAPLEHVWTCDGTNLDLFCMTVHDCVINEGKSKRRSKIIDSEGCSLDTTRLPNLRYENNKLSARVMSKAFRFGDDVAVEFECNVRLDLRNGTSCPRPRC”, which “soluble on expression in E. coli” value is on record?
A: Its value is “not soluble”.

Q: Which “soluble on expression in E. coli” value does the source give for “GKKLEPIEELTIDVPEEFMGVVMEKLGPRKAELVNMTSAVNGYTRLEFKIPSRGLIGFRNEFMTDTKGNGIMNSTLIDYEPFRGDIPERSRGSIVVFETGVSVVYGLYSAQERGRLFVGAGVDVYEGMV” here?
A: Its value is “not soluble”.

Q: For “MGSDKIHHHHHHMSRNSPLEISRTLVAALSTQMFRYYEDRIPQDASVLVVSNHRSFMDALILMAALSSPIRFACHHYMGQVPVMREIVTGQLGCFPLEETQNRQQSFFSQSQLLLQSKQMVGVFPEGTAPMVKSTQPNQVGEFQRGFAHLALRADVQDLAILPIAIASLEEVNTNGFPLRLLSVFDPSEPLFNQAGWHPLVIYRRVAVLIGRPYWITPQHQKKYHGKQARTVVAELTEHCHGEISHLLRQGCY”, which “soluble on expression in E. coli” value is on record?
A: Its value is “not soluble”.

Q: For “MKEKIITYLEEKGKSSVDDLASSLDMAGAQKFPSLIKEISKLESKGKLRFEQDGTISLRKKKEKKDQVTVTGIFRANKAGFGFVSIDEAEEDLFIGRNDVGHAVDGDTVEVAIKKVANRLKGTAAEARVVKIVEHSLKAVVGRFVLDDEKPPYIGYIKSKNQKITQKIYIKKEPIVLDGTEIIKVAIEKYPTRRYDYFVASVEDVIGHQDDVGIDVLEVLESMDIVSEFPDAVLKEAQSVPDAPSEKDLIGRVDLRKEITFTIDGADAKDLDDAVHVKLLDNGNFELGVHIADVSYYVKEGSALDGEALARGTSVYVTDRVVPMLPERLSNGICSLNPNLDRLTQSAIMEIDKHGRVLHYQITQTVINTSFRMTYSDVNAIIAGDKELTEQYDKIVPSIHYMVTLHKILEKMRERRGALNFDTSEAKILVNDKGFPMDIVLRQRGLAERMIESFMLAANECVAEHFAKKNLPFIYRIHEEPKAEKLQKFMDYASIFGVSIQGTASKISQTALQDFMKKIEGQPGSDVLSMMLLRSMQQARYSEYNHGHYGLAAQYYTHFTSPIRRYPDLLVHRLVREYDKANSEKVEHFAQIIPEIASQTSSLERRAIDAERVVEAMKKAEYMEEYVGQEFTGVVSSVVKFGLFVELPNTIEGLIHMTTLPEFYQFNERTLSLQGEKSGKVFRVGQSIKVKVLKADKETGDIDFAYLPSDFDIIEKLSRSKKEKPRPSRRSGDSKTKANKRSKRSALSQKKKKKPFYKEAVKKGGKHGKGSRKRRRSK”, which “soluble on expression in E. coli” value is on record?
A: Its value is “soluble”.

Q: For “MGSDKIHHHHHHMENQEKPLSVDEEYDLWKSNVPLMYDFVSETRLTWPSLTVQWLPTPVQELDGGFIKQELIIGTHTSGEEENYLKFAEINLPKEILSNEDPQEEAGEEYQSSLPAPRSNIRITAKYEHEEEITRARYMPQDPNIVATINGQGTVFLYSRSEGLQSTLKFHKDNGYALSFSTLVKGRLLSGSDDHTVALWEVGSGGDPTKPVRTWNDLHSDIINDNKWHNFNKDLFGTVSEDSLLKINDVRANNTTIDTVKCPQPFNTLAFSHHSSNLLAAAGMDSYVYLYDLRNMKEPLHHMSGHEDAVNNLEFSTHVDGVVVSSGSDNRLMMWDLKQIGAEQTPDDAEDGVPELIMVHAGHRSSVNDFDLNPQIPWLVASAEEENILQVWKCSHSLPIVGGPPKVNKDIIS”, which “soluble on expression in E. coli” value is on record?
A: The value was “not soluble”.

Q: Which “soluble on expression in E. coli” value does the source give for “MAGENIIIDLNFAVSANPREVWDVLTDFDRMADFVSNLKESKVVSISEDKFTIFQNGTATYGPIRYPFESIREVRLIPYHKILTHLVSGNMHKLDGTTYLTDETGGTRVVHRTEAIPKVWIPAVVGKVFIEHEVREQFNEMRNEIIRRKRAALKKGHEKQDGRLEHHHHHH” here?
A: Its value is “soluble”.
